This note sets out measurements from paper PMC8808172 (The Journal of Biological Chemistry, 2021).

The labels stand for the following.
B1: ClpX(A30S) (enzyme)
chain: not shown
B2: ClpX (WT) (enzyme)
chain: not shown

Data set [1] concerns the molecule itself. The data set can be described thus: SEC. Background: Size exclusion chromatography separates by hydrodynamic size, large species first.
The target in data set [2] is T1, ClpX N-terminal zinc-binding domain (ClpXN; amino acids 1–55) (E. coli, UniProt P0A6H1 1-55).
T1 sequence (looked up): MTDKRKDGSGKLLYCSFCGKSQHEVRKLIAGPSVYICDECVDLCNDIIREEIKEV
The data set can be described thus: NMR titration.

The target of data set [3] is B1. Description: filter retention assay.
Data set [4] has as its target B2. Description: filter retention assay.

By stoichiometry N is commonly meant a count of units in the complex or per binding partner. As for B1, the “stoichiometry N” value in data set [1] worked out at 6.

Consider B2, for which the “stoichiometry N” value in data set [1] turned out to be 6.

B3: ClpX(L13D) (enzyme)
chain: not shown
Regarding B3, the “stoichiometry N” value in data set [1] turned out to be 6.

B4: ClpX(H23A) (enzyme)
chain: not shown
Turning to B4, in data set [1], the “stoichiometry N” value was 6.

B5: ClpX(L13A) (enzyme)
chain: not shown
Turning to B5, in data set [1], the “stoichiometry N” value came out at 6.

B6: ClpX(L12S) (enzyme)
chain: not shown
On to B6, for which the “stoichiometry N” value in data set [1] is 6.

B7: MqsA_(1–34) (domain or fragment, E. coli, UniProt Q46864 1-34, looked up)
chain: MKCPVCHQGEMVSGIKDIPYTFRGRKTVLKGIHG
On to B7, for which the binding result in data set [2] is “binds”.

B8: Gfp-MqsA_(1–34) (domain or fragment, E. coli, UniProt Q46864 1-34, looked up)
chain: MKCPVCHQGEMVSGIKDIPYTFRGRKTVLKGIHG
On to B8, for which the binding result in data set [3] and in data set [4] was “binds” each time.
